Test results taken from IntAct's records for PubMed 31515488.

B1: Zinc finger protein with KRAB and SCAN domains 4 (Homo sapiens), Q969J2 (parent)
chain: MAREPRKNAALDAQSAEDQTGLLTVKVEKEEASALTAEVRAPCSPARGPERSRQRFRGFRYPEAAGPREALSRLRELCGQWLQPEMHSKEQILELLVLEQFLTILPGNLQSWVREQHPESGEEVVVLLEYLERQLDEPAPQVPVGDQGQELLCCKMALLTQTQGSQSSQCQPMKALFKHESLGSQPLHDRVLQVPGLAQGGCCREDAMVASRLTPGSQGLLKMEDVALTLTPGWTQLDSSQVNLYRDEKQENHSSLVSLGGEIQTKSRDLPPVKKLPEKEHGKICHLREDIAQIPTHAEAGEQEGRLQRKQKNAIGSRRHYCHECGKSFAQSSGLTKHRRIHTGEKPYECEDCGKTFIGSSALVIHQRVHTGEKPYECEECGKVFSHSSNLIKHQRTHTGEKPYECDDCGKTFSQSCSLLEHHKIHTGEKPYQCNMCGKAFRRNSHLLRHQRIHGDKNVQNPEHGESWESQGRTESQWENTEAPVSYKCNECERSFTRNRSLIEHQKIHTGEKPYQCDTCGKGFTRTSYLVQHQRSHVGKKTLSQ
B2: Glutathione S-transferase Mu 3 (Homo sapiens), P21266 (parent)
chain: MSCESSMVLGYWDIRGLAHAIRLLLEFTDTSYEEKRYTCGEAPDYDRSQWLDVKFKLDLDFPNLPYLLDGKNKITQSNAILRYIARKHNMCGETEEEKIRVDIIENQVMDFRTQLIRLCYSSDHEKLKPQYLEELPGQLKQFSMFLGKFSWFAGEKLTFVDFLTYDILDQNRIFDPKCLDEFPNLKAFMCRFEALEKIAAYLQSDQFCKMPINNKMAQWGNKPVC
partner: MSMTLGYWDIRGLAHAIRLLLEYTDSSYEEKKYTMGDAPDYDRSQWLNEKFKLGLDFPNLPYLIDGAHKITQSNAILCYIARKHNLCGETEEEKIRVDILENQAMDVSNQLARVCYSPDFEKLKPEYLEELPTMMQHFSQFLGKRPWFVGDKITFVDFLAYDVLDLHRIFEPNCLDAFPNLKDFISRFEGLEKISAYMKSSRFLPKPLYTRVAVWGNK
B3: PIH1 domain-containing protein 2 (Homo sapiens), Q8WWB5 (parent)
chain: METSSKGLLTQVTQFWNLLDDLAQSDPEGYEKFIQQQLKEGKQLCAAPEPQLCLQTRILKPKEKILFINLCQWTRIPAPQSTTHPVPLTVGKPEDTTEISDAYTVIDVAYNPDVLHAAEKDQVKKNQLIQMAMKCIEEKFQFTLSHSYHITKFRIKGSIQRMKQNLMGIQTDSIDLREKMRRELTLGQIRSSTMSNPDHFPQLLLPKDQVSGKAVCLIEEISSTEIQVEMKMPAYELKIVHDHSEKPLKIELKVELPGINSVSLCDLSVSEDDLLIEVSEKYRLHLNLPKLIDTEMTTAKFIKEKSTLIITMPLV
partner: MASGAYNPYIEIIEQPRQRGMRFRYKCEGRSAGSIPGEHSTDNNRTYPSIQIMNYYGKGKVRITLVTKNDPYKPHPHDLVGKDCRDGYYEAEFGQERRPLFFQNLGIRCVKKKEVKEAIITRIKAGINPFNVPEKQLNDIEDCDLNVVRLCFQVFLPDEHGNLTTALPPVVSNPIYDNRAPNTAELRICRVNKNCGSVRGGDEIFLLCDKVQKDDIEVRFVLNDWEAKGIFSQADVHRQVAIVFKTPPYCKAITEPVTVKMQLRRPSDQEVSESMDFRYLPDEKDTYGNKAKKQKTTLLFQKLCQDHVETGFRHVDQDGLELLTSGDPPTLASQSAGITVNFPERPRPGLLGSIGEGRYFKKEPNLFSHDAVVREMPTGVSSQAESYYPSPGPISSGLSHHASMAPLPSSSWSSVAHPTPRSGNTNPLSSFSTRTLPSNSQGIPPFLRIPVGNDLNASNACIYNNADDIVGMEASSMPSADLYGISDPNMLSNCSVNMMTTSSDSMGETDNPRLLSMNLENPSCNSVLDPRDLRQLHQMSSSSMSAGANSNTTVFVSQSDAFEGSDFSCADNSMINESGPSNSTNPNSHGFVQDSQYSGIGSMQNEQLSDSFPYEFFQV
B4: Stabilizer of axonemal microtubules 1 (Homo sapiens), Q8IYX7 (parent)
chain: MKTKCICELCSCGRHHCPHLPTKIYDKTEKPCLLSEYTENYPFYHSYLPRESFKPRREYQKGPIPMEGLTTSRRDFGPHKVAPVKVHQYDQFVPSEENMDLLTTYKKDYNPYPVCRVDPIKPRDSKYPCSDKMECLPTYKADYLPWNQPRREPLRLEHKYQPASVRFDNRTTHQDDYPIKGLVKTISCKPLAMPKLCNIPLEDVTNYKMSYVAHPVEKRFVHEAEKFRPCEIPFESLTTQKQSYRGLMGEPAKSLKPLARPPGLDMPFCNTTEFRDKYQAWPMPRMFSKAPITYVPPEDRMDLLTTVQAHYTCPKGAPAQSCRPALQIKKCGRFEGSSTTKDDYKQWSSMRTEPVKPVPQLDLPTEPLDCLTTTRAHYVPHLPINTKSCKPHWSGPRGNVPVESQTTYTISFTPKEMGRCLASYPEPPGYTFEEVDALGHRIYKPVSQAGSQQSSHLSVDDSENPNQRELEVLA
partner: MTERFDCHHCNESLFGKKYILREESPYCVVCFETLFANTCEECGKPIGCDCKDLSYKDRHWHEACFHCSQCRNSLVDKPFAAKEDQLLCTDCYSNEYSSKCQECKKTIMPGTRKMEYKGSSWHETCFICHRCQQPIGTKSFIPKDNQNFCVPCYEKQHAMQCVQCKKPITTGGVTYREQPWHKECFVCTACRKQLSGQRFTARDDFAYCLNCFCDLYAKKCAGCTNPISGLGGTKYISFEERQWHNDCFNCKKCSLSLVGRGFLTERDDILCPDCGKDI
B5: IQ motif and ubiquitin-like domain-containing protein (Homo sapiens), Q8NA54 (parent)
chain: MSNQQEKYEAQNIVNSTEESDDAFDTVTIPVPSEEPQESDQTEEHESGIEQFSESHAIHVEEQSDQSFSSLEPDNEQLMEEVISPRQVSYTPQHHEKQYAMQRPNDDSLAFLDKIKSVKESLQESVEDSLATVKVVLIPVGQEIVIPFKVDTILKYLKDHFSHLLGIPHSVLQIRYSGKILKNNETLVQHGVKPQEIVQVEIFSTNPDLYPVRRIDGLTDVSQIITVTVQTGLDQYQQVPVEIVKSDFHKPFLGGFRHKVTGVEYHNAGTQTVPKRIPERLSIFCRDTQTVFQKKNLQQTTNTTSTQMTNIGVYVSNMTDKLVTPGKYFSAAEYHAQRLKAVIVIQTYYRQWHAKIFVENLRRQKSLRLEWETQQELRKIREKEEWIKLDYHRRHNPKTNEDFEFLYNALEFWRQEELTRINQSFTGAERKAALCELLEKETQIIASIGRHRYIAYMANQEAAIQAFLDKCSAPKIWRTPNGKTIEMDTQFTIRARELQNIYKCIMLKNISQDERLDVLLTLKHTVKEHECKLTQEILELIDREVDLMMRGVKHHNLEGLRKRIATLFFHYIKTPLFNPEVAKYLKVPQDPLKFYKKIYFCHSCQLYLPSTEFSVSSTSRRIYRCRNCINLQNEAQKRESFLKYKCLLQQLYYTEADYEDDSKIAFLMQLQDIQYLTENIWASQSVLSACDNLSDLVMVRWNKSLEWSPWNCILLTKDEAAAHLKLTSIEEGYERSFIHKIKHKHILAKNYFSQVPVLASFILDDGEIDEIRWKYHSDTTPKIIESQRPPH
partner: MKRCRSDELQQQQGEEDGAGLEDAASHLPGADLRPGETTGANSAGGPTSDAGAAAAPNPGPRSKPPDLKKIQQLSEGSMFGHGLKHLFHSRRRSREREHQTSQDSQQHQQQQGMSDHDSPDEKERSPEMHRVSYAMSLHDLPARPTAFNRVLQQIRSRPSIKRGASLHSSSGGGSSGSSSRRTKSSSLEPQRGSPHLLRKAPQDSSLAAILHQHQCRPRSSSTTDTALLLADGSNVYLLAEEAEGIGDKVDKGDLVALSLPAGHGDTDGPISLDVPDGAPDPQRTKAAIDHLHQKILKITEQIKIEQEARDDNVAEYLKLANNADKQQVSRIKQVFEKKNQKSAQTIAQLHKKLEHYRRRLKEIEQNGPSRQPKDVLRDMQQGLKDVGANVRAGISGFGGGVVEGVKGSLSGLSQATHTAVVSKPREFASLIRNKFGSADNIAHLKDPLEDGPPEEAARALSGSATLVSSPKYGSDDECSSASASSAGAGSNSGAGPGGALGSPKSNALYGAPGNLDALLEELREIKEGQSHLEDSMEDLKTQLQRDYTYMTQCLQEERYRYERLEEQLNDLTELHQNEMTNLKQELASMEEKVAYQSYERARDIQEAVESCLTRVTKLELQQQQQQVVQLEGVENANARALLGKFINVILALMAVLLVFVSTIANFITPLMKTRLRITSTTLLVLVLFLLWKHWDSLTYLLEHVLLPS

Variants of: B1
Settings: with zsc32_human ZSCAN32, Q9NX65
Sequence of zsc32_human ZSCAN32, Q9NX65 (Q9NX65 whole entry): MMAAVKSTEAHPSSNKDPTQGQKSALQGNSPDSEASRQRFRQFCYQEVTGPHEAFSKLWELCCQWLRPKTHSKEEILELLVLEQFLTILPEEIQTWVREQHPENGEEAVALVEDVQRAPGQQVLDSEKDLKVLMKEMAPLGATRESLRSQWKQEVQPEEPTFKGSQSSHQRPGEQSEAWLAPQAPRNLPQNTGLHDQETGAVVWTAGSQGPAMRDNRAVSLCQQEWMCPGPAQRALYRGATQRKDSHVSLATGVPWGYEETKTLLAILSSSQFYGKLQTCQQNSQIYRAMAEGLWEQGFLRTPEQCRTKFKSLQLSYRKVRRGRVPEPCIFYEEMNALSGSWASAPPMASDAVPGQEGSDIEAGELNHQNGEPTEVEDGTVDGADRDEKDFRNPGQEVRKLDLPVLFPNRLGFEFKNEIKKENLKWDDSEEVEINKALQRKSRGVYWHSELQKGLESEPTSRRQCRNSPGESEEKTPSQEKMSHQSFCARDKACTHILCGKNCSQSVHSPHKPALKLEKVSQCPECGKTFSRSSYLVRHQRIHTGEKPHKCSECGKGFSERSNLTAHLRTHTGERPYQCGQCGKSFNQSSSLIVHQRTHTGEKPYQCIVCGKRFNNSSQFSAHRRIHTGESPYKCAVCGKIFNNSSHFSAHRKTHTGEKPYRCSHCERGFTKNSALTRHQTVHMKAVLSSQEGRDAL

| effect of a mutation on the interaction | Variant |
| --- | --- |
| with no effect | G79R |

Variants of: B1
Settings: with zksc7_human ZKSCAN7, Q9P0L1
Sequence of zksc7_human ZKSCAN7, Q9P0L1 (Q9P0L1 whole entry): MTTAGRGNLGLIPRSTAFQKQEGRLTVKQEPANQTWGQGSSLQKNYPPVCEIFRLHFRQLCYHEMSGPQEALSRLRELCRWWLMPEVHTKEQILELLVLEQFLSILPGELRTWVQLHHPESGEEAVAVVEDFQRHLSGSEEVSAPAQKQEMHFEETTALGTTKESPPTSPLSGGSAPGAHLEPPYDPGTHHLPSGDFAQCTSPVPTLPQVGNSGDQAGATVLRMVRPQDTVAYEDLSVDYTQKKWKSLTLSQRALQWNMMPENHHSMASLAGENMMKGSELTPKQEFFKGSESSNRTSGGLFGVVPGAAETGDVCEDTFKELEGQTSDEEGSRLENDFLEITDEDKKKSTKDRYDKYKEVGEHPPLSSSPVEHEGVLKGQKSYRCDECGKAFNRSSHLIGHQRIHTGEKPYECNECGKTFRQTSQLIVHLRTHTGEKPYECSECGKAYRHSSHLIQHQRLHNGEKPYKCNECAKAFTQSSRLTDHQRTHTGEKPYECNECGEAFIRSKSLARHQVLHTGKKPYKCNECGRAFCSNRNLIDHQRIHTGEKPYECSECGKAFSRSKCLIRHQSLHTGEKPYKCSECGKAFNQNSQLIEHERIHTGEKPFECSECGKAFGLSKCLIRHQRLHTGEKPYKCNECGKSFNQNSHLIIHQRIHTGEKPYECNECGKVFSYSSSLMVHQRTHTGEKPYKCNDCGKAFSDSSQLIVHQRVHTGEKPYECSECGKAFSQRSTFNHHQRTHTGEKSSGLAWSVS

| effect of a mutation on the interaction | Variant |
| --- | --- |
| with no effect | G79R |

Variants of: B1
Settings: with znf24_human ZNF24, P17028
Sequence of znf24_human ZNF24, P17028 (P17028 whole entry): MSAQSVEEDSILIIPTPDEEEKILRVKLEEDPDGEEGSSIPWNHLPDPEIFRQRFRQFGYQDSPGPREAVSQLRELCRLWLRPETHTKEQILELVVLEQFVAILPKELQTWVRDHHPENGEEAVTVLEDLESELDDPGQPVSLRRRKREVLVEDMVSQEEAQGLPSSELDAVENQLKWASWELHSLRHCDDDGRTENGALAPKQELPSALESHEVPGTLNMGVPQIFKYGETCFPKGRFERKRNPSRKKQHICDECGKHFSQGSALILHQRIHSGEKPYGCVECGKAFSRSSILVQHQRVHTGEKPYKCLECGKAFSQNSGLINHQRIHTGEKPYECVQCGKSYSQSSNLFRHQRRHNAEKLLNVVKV

| effect of a mutation on the interaction | Variant |
| --- | --- |
| disrupting interaction strength | G79R |

Variants of: B1
Settings: with zn496_human ZNF496, Q96IT1
Sequence of zn496_human ZNF496, Q96IT1 (Q96IT1 whole entry): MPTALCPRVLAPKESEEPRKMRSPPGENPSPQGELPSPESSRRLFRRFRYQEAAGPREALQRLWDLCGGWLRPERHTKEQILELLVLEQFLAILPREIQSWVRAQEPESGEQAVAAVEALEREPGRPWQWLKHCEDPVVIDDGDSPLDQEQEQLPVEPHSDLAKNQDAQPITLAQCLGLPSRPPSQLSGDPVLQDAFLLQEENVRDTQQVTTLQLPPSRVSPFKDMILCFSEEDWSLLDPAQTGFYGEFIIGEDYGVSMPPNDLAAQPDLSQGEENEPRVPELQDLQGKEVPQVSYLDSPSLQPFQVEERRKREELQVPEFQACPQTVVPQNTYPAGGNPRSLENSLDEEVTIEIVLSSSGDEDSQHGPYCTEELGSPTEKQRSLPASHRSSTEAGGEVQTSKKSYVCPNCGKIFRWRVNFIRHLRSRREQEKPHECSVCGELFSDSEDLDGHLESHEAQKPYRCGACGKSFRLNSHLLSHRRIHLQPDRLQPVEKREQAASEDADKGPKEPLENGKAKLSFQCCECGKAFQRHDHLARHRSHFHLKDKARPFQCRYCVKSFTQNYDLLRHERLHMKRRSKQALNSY

| effect of a mutation on the interaction | Variant |
| --- | --- |
| with no effect | G79R |

Variants of: B2
Settings: with gstm4_human GSTM4, Q03013

| effect of a mutation on the interaction | Variant |
| --- | --- |
| disrupting interaction strength | L23P |
| disrupting interaction strength | R86H |

Variants of: B3
Settings: with rel_human REL

| effect of a mutation on the interaction | Variant |
| --- | --- |
| with no effect | A102D |
| with no effect | A117V |

Variants of: B4
Settings: with fhl2_human FHL2, Q14192

| effect of a mutation on the interaction | Variant |
| --- | --- |
| disrupting interaction strength | D118G |
| disrupting interaction strength | N464K |

Variants of: B5
Settings: with tmcc2_human TMCC2, O75069

| effect of a mutation on the interaction | Variant |
| --- | --- |
| with no effect | V126M |
| disrupting interaction strength | I501F |
